Three substances from US20110319324A1 can be followed below.

A value given as a limit tells only on which side of the number the result lay.

The target in experiment [1] is EGF receptor (ErbB1) on HeLa 229 cells (UniProt P00533). The experiment can be described thus: cell-based or functional assay.
In experiment [2] the target is ErbB1 receptor (EGF receptor) on HeLa cells (UniProt P00533). The experiment can be described thus: cell-based or functional assay.

Chain of PEGylated betacellulin produced using the mPEG-SMB-20K reagent (P35070 other isoform, or with tags, fused parts or gaps limits assumed): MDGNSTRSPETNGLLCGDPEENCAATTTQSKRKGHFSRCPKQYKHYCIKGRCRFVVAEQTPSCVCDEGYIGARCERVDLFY
Chain of PEGylated betacellulin produced using the mPEG-ButyrALD-20K reagent (P35070 other isoform, or with tags, fused parts or gaps limits assumed): as above
Chain of Unreacted (SEC fraction of the PEGylation reactions, presumably unreacted betacellulin) (P35070 other isoform, or with tags, fused parts or gaps limits assumed): as above

“Unreacted (SEC fraction of the PEGylation reactions, presumably unreacted betacellulin) (from UniProt P35070 32-111) (ligand)”: in experiment [1], the ELISA activity is equivalent to [BTC] nM (phospho-EGFR pY1068 ELISA, HeLa 229 cells; 40 nM submitted; SEC column S70) came to 0 nM and the activity % (phospho-EGFR pY1068 ELISA, HeLa 229 cells) is 0%.

In turn, “PEGylated betacellulin produced using the mPEG-SMB-20K reagent (from UniProt P35070 32-111) (ligand)” came in with a betacellulin activity in the phospho-EGFR pY1068 ELISA on HeLa 229 cells (fold lower than unreacted betacellulin) in experiment [2] of 3. For the same substance, in experiment [1], the ELISA activity is equivalent to [BTC] nM (phospho-EGFR pY1068 ELISA, HeLa 229 cells; 40 nM submitted; SEC column S200) turned out to be 14 nM; the activity % (phospho-EGFR pY1068 ELISA, HeLa 229 cells) is 26%; the activity % (phospho-EGFR pY1068 ELISA, HeLa 229 cells; SEC column S200) worked out at 34%.

In experiment [2] (scale: % reduction against unreacted betacellulin), “PEGylated betacellulin produced using the mPEG-ButyrALD-20K reagent (from UniProt P35070 32-111) (ligand)” displayed a betacellulin activity in the phospho-EGFR pY1068 ELISA on HeLa 229 cells of less than 50. Moreover, in experiment [1], the activity % (phospho-EGFR pY1068 ELISA, HeLa 229 cells) came to 58% and the activity % (phospho-EGFR pY1068 ELISA, HeLa 229 cells; SEC column S200) was 55%.
